The assay has as its target IL-10Rβ on human primary monocytes and CD8 T cells (human) (UniProt Q08334). The assay can be described thus: cell-based or functional assay.

IL-10Rβ on human primary monocytes and CD8 T cells (human), sequence (Q08334 20-325): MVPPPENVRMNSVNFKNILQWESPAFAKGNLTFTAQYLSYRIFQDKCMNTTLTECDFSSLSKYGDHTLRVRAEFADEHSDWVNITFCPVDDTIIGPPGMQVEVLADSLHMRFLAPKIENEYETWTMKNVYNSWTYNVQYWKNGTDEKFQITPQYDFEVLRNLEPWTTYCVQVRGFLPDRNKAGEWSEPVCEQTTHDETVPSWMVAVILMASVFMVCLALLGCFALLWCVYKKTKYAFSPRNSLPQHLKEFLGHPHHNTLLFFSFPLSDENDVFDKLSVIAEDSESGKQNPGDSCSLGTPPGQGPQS
wild type IL-10 dimer (WTD), sequence (P22301 other isoform, or with tags, fused parts or gaps): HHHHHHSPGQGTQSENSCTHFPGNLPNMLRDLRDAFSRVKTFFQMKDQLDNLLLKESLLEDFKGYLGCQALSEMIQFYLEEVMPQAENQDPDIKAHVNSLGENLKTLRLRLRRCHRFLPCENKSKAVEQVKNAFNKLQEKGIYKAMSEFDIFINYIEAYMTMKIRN

Turning to “wild type IL-10 dimer (WTD) (from UniProt P22301 19-178) (ligand)”, the granzyme B production in CD8 T cells, flow cytometry worked out at 2.5 fold and the reduction of HLA-DR surface levels in human primary monocytes was 50%.

For “wild type monomeric IL-10 (WTM), recombinant (ligand)”, the pSTAT1 and pSTAT3 in human CD8 T cells, amplitude of activation (% of the dimeric molecules) was less than 25; the pSTAT1 and pSTAT3 in human monocytes, amplitude of activation (percentage of WTD) is less than 50; the reduction of HLA-DR surface levels in human primary monocytes turned out to be 20%.

The record behind these values is US20230203117A1.
